The source of these data is US20180155451A1 (published 2018).

Sequences and labels used below:
T1: FcγRIIb extracellular domain with C-terminal His tag (human, UniProt P31994 43-217)
T1 construct: extracellular domain; expressed in FreeStyle293 cells; analyte in the Biacore assay; also called FcgRIIb; 2b; not shown: His tag at the C terminus
T1 sequence (looked up): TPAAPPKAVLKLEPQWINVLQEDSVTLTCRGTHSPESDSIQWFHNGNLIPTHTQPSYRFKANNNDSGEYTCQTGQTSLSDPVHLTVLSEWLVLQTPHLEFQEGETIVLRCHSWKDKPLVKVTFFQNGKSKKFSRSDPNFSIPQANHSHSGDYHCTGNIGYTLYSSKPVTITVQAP

B1: GpH7-A5/GpH7-B3 variant K326_07I/GpL16-k0 (antibody, human IgG1, kappa)
heavy 1: not shown
heavy 2: not shown
light: DIVMTQSPLSLPVTPGEPASISCQASESLVHSNRNTYLHWYLQKPGQSPQLLIYKVSNRFSGVPDRFSGSGSGTDFTLKISRVEAEDVGVYYCSQNTHVPPTFGQGTKVEIERTVAAPSVFIFPPSDEQLKSGTASVVCLLNNFYPREAKVQWKVDNALQSGNSQESVTEQDSKDSTYSLSSTLTLSKADYEKHKVYACEVTHQGLSSPVTKSFNRGEC
notes: heterodimerized; mutation in the B3 H chain only; also called He Ab K326_07I
B2: GpH7-A5/GpH7-B3 variant K334_14T/GpL16-k0 (antibody, human IgG1, kappa)
heavy 1: not shown
heavy 2: not shown
light: B1 light
notes: heterodimerized; mutation in the B3 H chain only; also called He Ab K334_14T
B3: GpH7-A5/GpH7-B3 variant K326_06M/GpL16-k0 (antibody, human IgG1, kappa)
heavy 1: not shown
heavy 2: not shown
light: B1 light
notes: heterodimerized; mutation in the B3 H chain only; also called He Ab K326_06M
B4: GpH7-A5/GpH7-B3 variant K334_08L/GpL16-k0 (antibody, human IgG1, kappa)
heavy 1: not shown
heavy 2: not shown
light: B1 light
notes: heterodimerized; mutation in the B3 H chain only; also called He Ab K334_08L
B5: GpH7-A5/GpH7-B3 variant A327_09D/GpL16-k0 (antibody, human IgG1, kappa)
heavy 1: not shown
heavy 2: not shown
light: B1 light
notes: heterodimerized; mutation in the B3 H chain only; also called He Ab A327_09D
B6: GpH7-A5/GpH7-B3 variant L328_13S/GpL16-k0 (antibody, human IgG1, kappa)
heavy 1: not shown
heavy 2: not shown
light: B1 light
notes: heterodimerized; mutation in the B3 H chain only; also called He Ab L328_13S
B7: GpH7-A5/GpH7-B3 variant P238_04F/GpL16-k0 (antibody, human IgG1, kappa)
heavy 1: not shown
heavy 2: not shown
light: B1 light
notes: heterodimerized; mutation in the B3 H chain only; also called He Ab P238_04F
B8: GpH7-A5/GpH7-B3 variant K334_05P/GpL16-k0 (antibody, human IgG1, kappa)
heavy 1: not shown
heavy 2: not shown
light: B1 light
notes: heterodimerized; mutation in the B3 H chain only; also called He Ab K334_05P
B9: GpH7-A5/GpH7-B3 variant H268_13S/GpL16-k0 (antibody, human IgG1, kappa)
heavy 1: not shown
heavy 2: not shown
light: B1 light
notes: heterodimerized; mutation in the B3 H chain only; also called He Ab H268_13S
B10: GpH7-A5/GpH7-B3 variant K334_04F/GpL16-k0 (antibody, human IgG1, kappa)
heavy 1: not shown
heavy 2: not shown
light: B1 light
notes: heterodimerized; mutation in the B3 H chain only; also called He Ab K334_04F
B11: GpH7-A5/GpH7-B3 variant K334_07I/GpL16-k0 (antibody, human IgG1, kappa)
heavy 1: not shown
heavy 2: not shown
light: B1 light
notes: heterodimerized; mutation in the B3 H chain only; also called He Ab K334_07I
B12: GpH7-A5/GpH7-B3 variant I336_08L/GpL16-k0 (antibody, human IgG1, kappa)
heavy 1: not shown
heavy 2: not shown
light: B1 light
notes: heterodimerized; mutation in the B3 H chain only; also called He Ab I336_08L
B13: GpH7-A5/GpH7-B3 variant K326_19Q/GpL16-k0 (antibody, human IgG1, kappa)
heavy 1: not shown
heavy 2: not shown
light: B1 light
notes: heterodimerized; mutation in the B3 H chain only; label printed K326_190, read as K326_19Q; also called He Ab K326_19Q
B14: GpH7-A5/GpH7-B3 variant A330_01G/GpL16-k0 (antibody, human IgG1, kappa)
heavy 1: not shown
heavy 2: not shown
light: B1 light
notes: heterodimerized; mutation in the B3 H chain only; also called He Ab A330_01G
B15: GpH7-A5/GpH7-B3 variant K326_10E/GpL16-k0 (antibody, human IgG1, kappa)
heavy 1: not shown
heavy 2: not shown
light: B1 light
notes: heterodimerized; mutation in the B3 H chain only; also called He Ab K326_10E
B16: GpH7-A5/GpH7-B3 variant K326_08L/GpL16-k0 (antibody, human IgG1, kappa)
heavy 1: not shown
heavy 2: not shown
light: B1 light
notes: heterodimerized; mutation in the B3 H chain only; also called He Ab K326_08L
B17: GpH7-A5/GpH7-B3 variant L235_20W/GpL16-k0 (antibody, human IgG1, kappa)
heavy 1: not shown
heavy 2: not shown
light: B1 light
notes: heterodimerized; mutation in the B3 H chain only; also called He Ab L235_20W
B18: GpH7-A5/GpH7-B3 variant I332_09D/GpL16-k0 (antibody, human IgG1, kappa)
heavy 1: not shown
heavy 2: not shown
light: B1 light
notes: heterodimerized; mutation in the B3 H chain only; also called He Ab I332_09D
B19: GpH7-A5/GpH7-B3 variant K326_14T/GpL16-k0 (antibody, human IgG1, kappa)
heavy 1: not shown
heavy 2: not shown
light: B1 light
notes: heterodimerized; mutation in the B3 H chain only; also called He Ab K326_14T
B20: GpH7-A5/GpH7-B3 variant K326_15Y/GpL16-k0 (antibody, human IgG1, kappa)
heavy 1: not shown
heavy 2: not shown
light: B1 light
notes: heterodimerized; mutation in the B3 H chain only; also called He Ab K326_15Y
B21: GpH7-A5/GpH7-B3 variant I332_10E/GpL16-k0 (antibody, human IgG1, kappa)
heavy 1: not shown
heavy 2: not shown
light: B1 light
notes: heterodimerized; mutation in the B3 H chain only; also called He Ab I332_10E
B22: GpH7-A5/GpH7-B3 variant P331_16H/GpL16-k0 (antibody, human IgG1, kappa)
heavy 1: not shown
heavy 2: not shown
light: B1 light
notes: heterodimerized; mutation in the B3 H chain only; also called He Ab P331_16H
B23: GpH7-A5/GpH7-B3 variant K326_09D/GpL16-k0 (antibody, human IgG1, kappa)
heavy 1: not shown
heavy 2: not shown
light: B1 light
notes: heterodimerized; mutation in the B3 H chain only; also called He Ab K326_09D
B24: GpH7-A5/GpH7-B3 variant G237_20W/GpL16-k0 (antibody, human IgG1, kappa)
heavy 1: not shown
heavy 2: not shown
light: B1 light
notes: heterodimerized; mutation in the B3 H chain only; also called He Ab G237_20W
B25: GpH7-A5/GpH7-B3 variant S239_10E/GpL16-k0 (antibody, human IgG1, kappa)
heavy 1: not shown
heavy 2: not shown
light: B1 light
notes: heterodimerized; mutation in the B3 H chain only; also called He Ab S239_10E
B26: GpH7-A5/GpH7-B3 variant H268_10E/GpL16-k0 (antibody, human IgG1, kappa)
heavy 1: not shown
heavy 2: not shown
light: B1 light
notes: heterodimerized; mutation in the B3 H chain only; also called He Ab H268_10E

The experiment addresses T1, FcγRIIb extracellular domain with …. Briefly: SPR (Biacore), captured antibody, FcγRIIb analyte; binding relative to GpH7-A5/GpH7-B3/GpL16-k0 = 100.
Regarding B1, the He/Con_2b is 199 % of control.

For B2, the He/Con_2b is 115 % of control. Regarding B3, the He/Con_2b is 165 % of control.

Take B4: the He/Con_2b was 106 % of control. The figure for B5 is 172 % of control; for B6 it is 149 % of control; for B7 it is 312 % of control. In the case of B8, the He/Con_2b was 105 % of control. The figure for B9 is 160 % of control. The figure for B10 is 111 % of control; for B11 it is 119 % of control. In the case of B12, the He/Con_2b is 107 % of control. The figure for B13 is 139 % of control; for B14 it is 104 % of control. The figure for B15 is 200 % of control. In the case of B16, the He/Con_2b was 177 % of control.

In the case of B17, the He/Con_2b was 147 % of control. Turning to B18, the He/Con_2b is 147 % of control. B19: the He/Con_2b is 150 % of control. The figure for B20 is 159 % of control; for B21 it is 142 % of control; for B22 it is 116 % of control. The figure for B23 is 193 % of control; for B24 it is 193 % of control. The figure for B25 is 181 % of control; for B26 it is 230 % of control.
